Where two headings read alike, the source gives them in different places.
Key:
SemiSWEET [1] = assay: native MS
SemiSWEET [2] = assay: native MS; remark: listed apart in the source

Substance SemiSWEET (natural protein) has a stoichiometry N (SemiSWEET [1]) of 2 and a stoichiometry N (SemiSWEET [2]) of 2.
